Reference: patent publication US20080119430A1

Columns and labels:
Assay in all cases: cell-based or functional assay
[1] = target: Rac (active Rac-GTP, endogenous in HUVECs) (human) (UniProt P31749)
[2] = target: Cdc42 (active Cdc42-GTP, endogenous in HUVECs) (human) (UniProt P60953)
[3] = target: Rac (active Rac-GTP, endogenous in NIH3T3 cells)

Rac (active Rac-GTP, endogenous in HUVECs) (human), sequence (P31749 whole entry): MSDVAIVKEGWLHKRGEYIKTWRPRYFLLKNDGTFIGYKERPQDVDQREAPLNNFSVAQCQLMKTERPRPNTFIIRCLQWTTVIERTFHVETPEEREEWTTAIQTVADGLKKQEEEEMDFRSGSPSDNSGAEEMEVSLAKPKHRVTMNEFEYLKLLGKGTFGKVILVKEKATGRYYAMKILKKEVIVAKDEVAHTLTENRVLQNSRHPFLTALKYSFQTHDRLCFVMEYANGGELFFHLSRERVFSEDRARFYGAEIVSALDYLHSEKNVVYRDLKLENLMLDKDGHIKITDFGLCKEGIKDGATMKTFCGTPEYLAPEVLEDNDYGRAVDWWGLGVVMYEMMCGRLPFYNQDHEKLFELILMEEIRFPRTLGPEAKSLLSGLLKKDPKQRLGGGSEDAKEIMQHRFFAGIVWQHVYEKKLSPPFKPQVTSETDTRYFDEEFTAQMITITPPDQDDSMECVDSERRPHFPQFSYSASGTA
Cdc42 (active Cdc42-GTP, endogenous in HUVECs) (human), sequence (P60953 1-188 limits assumed): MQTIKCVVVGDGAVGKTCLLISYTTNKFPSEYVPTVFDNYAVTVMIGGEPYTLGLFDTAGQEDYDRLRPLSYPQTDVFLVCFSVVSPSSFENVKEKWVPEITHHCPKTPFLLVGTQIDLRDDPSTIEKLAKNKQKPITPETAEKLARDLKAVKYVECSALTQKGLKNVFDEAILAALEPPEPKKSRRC

## BNO69 (endogenous protein in HUVECs, knocked down by adenoviral antisense BNO69R) (from UniProt Q8N264 131-748) (enzyme)
[1]
  fold increase in active Rac in HUVECs after BNO69 knockdown with BNO69R, compared to empty vector: 1.1 fold
[2]
  fold increase in active Cdc42 in HUVECs after BNO69 knockdown with BNO69R, compared to empty vector: 1.1 fold

## BNO69 (endogenous protein in NIH3T3 cells, knocked down by retroviral antisense BNO69R) (enzyme)
[3]
  increase in Rac activity (Rac-GTP pull-down) in NIH3T3 cells after inhibition of BNO69 expression with antisense BNO69R: 3 fold
